Measured values as given in patent US20210087270A1 (INNATE PHARMA, published 2021).

B1: antibody 10F6 (antibody, V domains shown)
VH: QIQLVQSGPELKKPGETVRISCKASGYTFTIAGMQWVQKMPGKGLKWIGWINTHSGVPKYAEDFKGRFAFSLETSANIAYLQISNLKNEDTATYFCARGGDEGVMDYWGQGTSVTVS
VL: DIVMTQSHKFMSTSVGDRVSITCKASQDVSTAVAWYHQKPGQSPKLLIYWASTRHTGVPDRFSGSGSGTDYTLTISALQAEDLALYYCQQHYNTPWTFGGGTKLEIK
notes: Detected with goat anti-mouse antibody
B2: antibody 20E9 (antibody, V domains shown)
VH: QVQLQQSGAEVARPGASVKLSCKSSGFTFTTYWMQWVKQRPGQGLEWIGAIYPGDGDTRYTQKFKGKATLTADKSSITAYMQLSSLASEDSAVYYCARRGDYGNYGMDYWGQGTSVTVSS
VL: DVLMTQTPLSLPVSLGDQASISCRSSQSIVHSNGNTYLEWYLQKPGQSPKLLIYKVSNHFSGVPDRFSGSGSGTDFTLKISRVEAEDLGVYYCFQGSHVPPTFGGGTKLEIK
B3: antibody 1C3 (antibody, V domains shown)
VH: QVQLQQSGAELARPGASVKLSCKASGYTFTSYWMQWVKQRPGQGLEWIGAIYPGDGDTRYTQKFKGKATLTADKSSSTAYMQLSSLASEDSAVYYCARRYDGYYHFDYWGQGTTLTVS
VL: DIVMTQSPSSLAVTAGEKVTMSCKSSQSLLWSVNQKNYLSWYQQKQRQPPKLLIYGASIRESWVPDRFTGSGSGTDFTLTISNVHAEDLAVYYCQHNHGSFLPLTFGSGTKLEIK
B4: antibody 13H1 (antibody, V domains shown)
VH: EVQLQQSGPELVKPGASMKISCKASHYSFIGYTMNWVKQRHGKNLEWIGLINPYNGDTTYNQKFKGKASLTVDKSSSTAYMEILSLTSEDSAVYYCARENWGYPYAMDYWGQGTSVTVS
VL: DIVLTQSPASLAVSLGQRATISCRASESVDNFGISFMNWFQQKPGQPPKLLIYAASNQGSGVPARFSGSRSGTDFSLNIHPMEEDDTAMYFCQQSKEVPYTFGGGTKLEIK
B5: antibody 10G5 (antibody, V domains shown)
VH: QVQLQQSAAELARPGASVKMSCKASGYTFTSYTMHWVKQRPGQGLEWIGYINPSSGYTENNRKFKDKTTLTADKSSSTAYMQLSSLTSEDSAVYYCARLGKGLLPPFDYWGQGTTLTVSS
VL: DIQMTQSPASLSVSVGETVTITCRASENIYSNLAWYQQKQGKSPQLLVYAATNLADGVPSRFSGSGSGTQYSLKINSLQSEDFGSYYCQHFWGTPYTFGGGTKLEIK
B6: antibody 1E2 (antibody, V domains shown)
VH: QVQLQQSGAELVRPGVSVKISCKGSGYTFTDYAMNWVKQSHAKSLEWIGVISTYYGDANYNQKFKGKATMTVDKSSSTAYMELARLTSEDSAIYYCALIYYDYDGSYWGQGTTLTVS
VL: DVVMTQTPLSLPVSLGDQASISCRSSQSLVHSNGNTYLHWYLQKPGQSPKLLIYKVSNRFSGVPDRFSGSGSGTDFTLKISRVEAEDLGVYFCSQSTHVPPYTFGGGTKLEIK

Columns and labels:
[1] = molecular target: T1, human KIR3DL2 (CD158k), wild type, at the cell surface (human, UniProt P43630 22-455); assay: fluoro-microscopy on HUT78 cells, 10 µg/ml, goat anti-mouse Alexa594
T1 construct: also called WTaKIR3DL2; un-mutated wild type KIR3DL2
T1 sequence (P43630 22-455 E158D): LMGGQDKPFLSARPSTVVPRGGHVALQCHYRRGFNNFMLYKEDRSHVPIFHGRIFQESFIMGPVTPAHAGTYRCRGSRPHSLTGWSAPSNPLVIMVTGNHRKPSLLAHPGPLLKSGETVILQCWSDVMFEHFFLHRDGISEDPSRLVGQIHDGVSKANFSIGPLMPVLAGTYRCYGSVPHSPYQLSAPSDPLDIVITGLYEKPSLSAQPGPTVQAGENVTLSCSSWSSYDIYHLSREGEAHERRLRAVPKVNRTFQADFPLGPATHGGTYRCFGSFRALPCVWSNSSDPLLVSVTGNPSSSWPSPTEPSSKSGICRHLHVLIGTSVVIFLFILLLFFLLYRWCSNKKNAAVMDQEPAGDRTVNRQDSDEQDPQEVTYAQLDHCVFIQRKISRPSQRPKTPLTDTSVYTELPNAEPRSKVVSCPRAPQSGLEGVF
Experimental: Internalization of antibodies 10F6, 2B12, 18C6, 9E10, 10G5, 13H1, 4B5, 5H1, 1E2, 1C3 and 20E9, as well as antibody AZ158 (an anti-domain 0 mAb as comparator) and other anti-D1 antibodies as disclosed in PCT applications WO2014/044686 and WO2014/044681 were assessed by fluoro-microscopy using the HUT78 SS cell line.
Hut-78 cells were incubated during 1H at 4° C. with 10 μg/ml of the different antibodies. After this incubation cells were either fixed (t=OH) or incubated for 2H at 37° C. Cells incubated for 2H were then fixed and stained. Antibodies were stained using goat anti-mouse antibodies coupled to Alexa594 (Invitrogen, A11032). […] Pictures were acquired using an Apotome device (Zeiss) and analyzed using the Axiovision software.

KIR3DL1 (CD158e1) = molecular target: T2, KIR3DL1 (CD158e1) (UniProt P43629 22-444, limits assumed); assay: hybridoma screening (flow cytometry, incl. HEK-293T/KIR3DL1 Domain 0-eGFP)
T2 construct: also called closely related KIR3DL1
T2 sequence (P43629 22-444 limits assumed): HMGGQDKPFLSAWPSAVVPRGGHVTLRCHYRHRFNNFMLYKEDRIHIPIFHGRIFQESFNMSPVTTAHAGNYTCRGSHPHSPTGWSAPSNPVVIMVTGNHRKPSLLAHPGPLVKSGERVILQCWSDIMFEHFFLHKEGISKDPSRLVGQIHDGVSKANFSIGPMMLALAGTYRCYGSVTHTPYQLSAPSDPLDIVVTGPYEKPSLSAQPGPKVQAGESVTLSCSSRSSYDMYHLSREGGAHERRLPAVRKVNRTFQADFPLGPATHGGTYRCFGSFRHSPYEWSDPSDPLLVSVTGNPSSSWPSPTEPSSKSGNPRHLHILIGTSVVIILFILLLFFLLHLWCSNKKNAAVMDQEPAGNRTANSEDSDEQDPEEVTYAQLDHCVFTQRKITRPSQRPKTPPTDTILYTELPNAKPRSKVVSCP
Experimental: Antibodies which bind KIR3DL2 but not closely related KIR3DL1 were generated by immunizing mice with recombinant KIR3DL2-Fc fusion protein, described in US patent publication number US-2015-0232556-A1. Supernatant (SN) of the growing hybridomas were tested by flow cytometry on Sezary Syndrome cell lines (HUT78, COU-L) and HEK-293T/KIR3DL2 Domain 0-eGFP. Potentially interesting hybridomas selected from the initial screening were cloned by limiting dilution techniques in 96-wells plates. The secondary screen involved selection of hybridomas of interest by testing supernatants of the subclones by flow cytometry on HUT78, COU-L, HEK-293T/KIR3DL1 Domain 0-eGFP and HEK-293T/KIR3DL2 Domain 0-eGFP. Positive subclones were injected into mice to produce ascitis and antibodies of interest were purified before being tested in a Biacore assay using rec KIR3DL2 chips, followed by various assays formats based on binding to human KIR3DL2-expressing cells.

Binder | binding result [1] | binding result (KIR3DL1 (CD158e1))
B1 | binds | 
B2 | binds | 
B3 | binds | 
B4 | binds | 
B5 |  | no binding
B6 | binds | 
